{
  "source": "patent US20240317834A1",
  "about": "“COMPOSITIONS AND METHODS FOR NEUROLOGICAL DISEASES” (CODA BIOTHERAPEUTICS, INC., priority 2020, published 2024)",
  "key": {"rat DRG neurons": {"system": "rat DRG neurons", "experiment": "Rheobase shift and evoked action potentials in rat DRG neurons (current clamp)", "format": "cell-based", "procedure": "Using whole cell manual patch clamp electrophysiology in HEK293 cells, rat DRG neurons and rat hippocampal neurons, the EC50 of the various engineered receptors disclosed herein to Ach and non-native ligands was measured using the Hill equation with peak current measurements from escalating doses of ligand. The rheobase shift was also measured in rat DRG neurons, which reflects the efficacy of the receptors. To calculate the rheobase, first, the amount of current that can produce an action potential was determined. Then the ligand was added, followed by a step wise increase in the current injected up to 700 pA.\nFor manual patch clamp experiments, Cells plated on coverslips were visualized at 10× and 40× on an inverted fluorescence microscope (Olympus). Recordings were made with an Axopatch 200B amplifier and Digidata 1550B (Molecular Devices) at RT using 3-6 MOhm glass patch electrodes (Sutter, BF150-86-10). Unless otherwise stated, recordings were made in extracellular solution (ECS) containing: 140 mM sodium chloride, 4 mM potassium chloride, 1 mM magnesium chloride, 2 mM calcium chloride, 10 mM HEPES, and 10 mM D-(+)-glucose (pH=7.3 with sodium hydroxide, osmolarity=305−315 mOsm). An 8-line reservoir (AutoMate Scientific) in combination with an 8-channel zero-dead-volume perfusion pencil (AutoMate Scientific) was used for perfusion. Data was acquired using pClamp software (Molecular Devices). Traces were either analyzed in Clampfit (Molecular Devices) or using custom Python code. Plotting and statistics were performed in GraphPad Prism.\nDRG rheobase experiments were performed in current clamp mode using a potassium-based internal solution containing: 100 mM potassium D-gluconate, 28 mM potassium chloride, 1 mM magnesium chloride hexahydrate, 5 mM magnesium ATP, 10 mM HEPES, and 0.5 mM EGTA (pH=7.2 with potassium hydroxide, osmolarity=290-295 mOsm, calculated liquid junction potential=−13.5 mV). To measure DRG input resistance and rheobase, 500 ms current steps (−200 pA to 700 pA) were applied the membrane in the presence and absence of a compound. No holding current was applied to the membrane for cells included in the final datasets. Data were acquired at 10 kHz, with Bessel filter at 2 kHz and series resistance compensation at 100%. Rheobase was defined as the smallest depolarizing current injection required to cause an action potential to fire in the cell. In a subset of cells, the rheobase was ambiguous, since the action potential appeared to be graded in amplitude. In these cases, a […] of the trace clarified the rheobase. Input resistance was measured from the negative current injections, calculated as the difference in membrane potential at steady state divided by the current injection amplitude and then averaged across the four negative current steps for each recording. Resting membrane potential was measured from the first 100 ms of each sweep, averaged for each recording, and corrected for liquid junction potential. One-way ANOVA with multiple comparisons was used to test for significance of difference in rheobase and input resistance between baseline, drug, and wash conditions."}, "Lenti-X 293T cells": {"system": "Lenti-X 293T cells", "experiment": "YFP fluorescence quenching anion reporter plate reader assay of engineered receptors stimulated with acetylcholine or a non-native ligand", "format": "cell-based", "summary_of_the_method": "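YFP quench was followed for about 1 min 43 s after ligand delivered in iodide-based ECS, pH 7.2. Values are end-of-read fluorescence (last 10 s) divided by the pre-ligand baseline (15 s). Cells were LX293T, transfected with receptor DNA a day before the assay.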"}},
  "data": [
    {"molecule": "CODA1054: engineered chimeric LGIC receptor, R101M, L131F in SEQ ID NO: 33 (protein, synthetic sequence of chimeric LGIC) MRCSPGGVWLALAASLLHVSLQGEFQRKLYKELVKNYNPLERPVANDSQPLTVYFSLSLLQIMDVDEKNQVLTTNIWLQMSWTDHYLQWNVSEYPGVKTVMFPDGQIWKPDILLYNSADERFDATFHTNVFVNSSGHCQYLPPGIFKSSCPMDLKNFPMDVQTCKLKFGSWSYGGWSLDLQMQEADISGYIPNGEWDLVGIPGKRSERFYECCKEPYPDVTFTVTMRRRMGYYLIQMYIPSLLIVILSWISFWINMDAAPARVGLGITTVLTMTTQSSGSRASLPKVSYVKAIDIWMAVCLLFVFSALLEYAAVNFVSRQHKELLRFRRKRRHHKSPMLNLFQEDEAGEGRFNFSAYGMGPACLQAKDGISVKGANNSNTTNPPPAPSKSPEEMRKLFIQRAKKIDKISRIGFPMAFLIFNMFYWIIYKIVRREDVHNQ", "values": [
      {"measurement": "Rheobase Shift; Rat DRG Neurons, +TC-5619 @ EC90", "setting": "rat DRG neurons; +TC-5619 @ EC90", "result": "673 ± 27", "unit": "pA"},
      {"measurement": "Rheobase Shift; Rat DRG Neurons, Baseline", "setting": "rat DRG neurons; Baseline, no ligand", "result": "105 ± 13", "unit": "pA"},
      {"measurement": "YFP fluorescence quenching using CNL001", "setting": "Lenti-X 293T cells; 1 nM CNL001, first column", "result": 21.932, "unit": "%"},
      {"measurement": "YFP fluorescence quenching using CNL001", "setting": "Lenti-X 293T cells; 1 nM CNL001, second column", "result": 39.689, "unit": "%"},
      {"measurement": "YFP fluorescence quenching using TC-5619/Bradanicline", "setting": "Lenti-X 293T cells; 1 nM brd", "result": 6.609, "unit": "%"},
      {"measurement": "YFP fluorescence quenching using TC-5619/Bradanicline", "setting": "Lenti-X 293T cells; 3 nM brd", "result": "−7.635", "unit": "%"},
      {"measurement": "YFP fluorescence quenching using Varenicline", "setting": "Lenti-X 293T cells; 3 nM var, first column", "result": 34.923},
      {"measurement": "YFP fluorescence quenching using Varenicline", "setting": "Lenti-X 293T cells; 3 nM var, second column", "result": 28.944},
      {"measurement": "YFP fluorescence quenching using CNL001", "setting": "Lenti-X 293T cells; 10 nM CNL001, first column", "result": 54.192, "unit": "%"},
      {"measurement": "YFP fluorescence quenching using CNL001", "setting": "Lenti-X 293T cells; 10 nM CNL001, second column", "result": 64.111, "unit": "%"},
      {"measurement": "YFP fluorescence quenching using TC-5619/Bradanicline", "setting": "Lenti-X 293T cells; 10 nM brd", "result": 4.459, "unit": "%"},
      {"measurement": "YFP fluorescence quenching using TC-5619/Bradanicline", "setting": "Lenti-X 293T cells; 30 nM brd", "result": 69.782, "unit": "%"},
      {"measurement": "YFP fluorescence quenching using Varenicline", "setting": "Lenti-X 293T cells; 30 nM var, first column", "result": 42.214},
      {"measurement": "YFP fluorescence quenching using Varenicline", "setting": "Lenti-X 293T cells; 30 nM var, second column", "result": 43.015},
      {"measurement": "YFP fluorescence quenching using CNL001", "setting": "Lenti-X 293T cells; 50 nM CNL001, first column", "result": 71.409, "unit": "%"},
      {"measurement": "YFP fluorescence quenching using CNL001", "setting": "Lenti-X 293T cells; 50 nM CNL001, second column", "result": 70.989, "unit": "%"},
      {"measurement": "YFP fluorescence quenching using ABT-126", "setting": "Lenti-X 293T cells; 50 nM abt", "result": "−19.54", "unit": "%"},
      {"measurement": "YFP fluorescence quenching using CNL001", "setting": "Lenti-X 293T cells; 100 nM CNL001, first column", "result": 74.148, "unit": "%"},
      {"measurement": "YFP fluorescence quenching using CNL001", "setting": "Lenti-X 293T cells; 100 nM CNL001, second column", "result": 71.722, "unit": "%"},
      {"measurement": "YFP fluorescence quenching using ABT-126", "setting": "Lenti-X 293T cells; 100 nM abt", "result": "−18.28", "unit": "%"},
      {"measurement": "YFP fluorescence quenching using TC-5619/Bradanicline", "setting": "Lenti-X 293T cells; 100 nM brd", "result": 77.633, "unit": "%"},
      {"measurement": "YFP fluorescence quenching using ABT-126", "setting": "Lenti-X 293T cells; 300 nM abt", "result": "−16.87", "unit": "%"},
      {"measurement": "YFP fluorescence quenching using TC-5619/Bradanicline", "setting": "Lenti-X 293T cells; 300 nM brd", "result": 72.933, "unit": "%"},
      {"measurement": "YFP fluorescence quenching using Varenicline", "setting": "Lenti-X 293T cells; 300 nM var, first column", "result": 47.059},
      {"measurement": "YFP fluorescence quenching using Varenicline", "setting": "Lenti-X 293T cells; 300 nM var, second column", "result": 52.768},
      {"measurement": "YFP fluorescence quenching using Varenicline", "setting": "Lenti-X 293T cells; 500 nM var, first column", "result": 59.542},
      {"measurement": "YFP fluorescence quenching using Varenicline", "setting": "Lenti-X 293T cells; 500 nM var, second column", "result": 62.641},
      {"measurement": "YFP fluorescence quenching using CNL001", "setting": "Lenti-X 293T cells; 1 uM CNL001, first column", "result": 71.378, "unit": "%"},
      {"measurement": "YFP fluorescence quenching using CNL001", "setting": "Lenti-X 293T cells; 1 uM CNL001, second column", "result": 71.411, "unit": "%"},
      {"measurement": "YFP fluorescence quenching using ABT-126", "setting": "Lenti-X 293T cells; 1 uM abt", "result": "−11.77", "unit": "%"},
      {"measurement": "YFP fluorescence quenching using Varenicline", "setting": "Lenti-X 293T cells; 1 uM var, first column", "result": 71.449},
      {"measurement": "YFP fluorescence quenching using Varenicline", "setting": "Lenti-X 293T cells; 1 uM var, second column", "result": 69.145},
      {"measurement": "percent quench of YFP fluorescence, 30 nM TC-6683", "setting": "Lenti-X 293T cells; TC-6683 30 nM", "result": "−22.996", "unit": "%"},
      {"measurement": "percent quench of YFP fluorescence, 300 nM TC-6683", "setting": "Lenti-X 293T cells; TC-6683 300 nM", "result": "−27.055", "unit": "%"},
      {"measurement": "percent quench of YFP fluorescence, 3 uM TC-6683", "setting": "Lenti-X 293T cells; TC-6683 3 uM", "result": "−18.611", "unit": "%"},
      {"measurement": "percent quench of YFP fluorescence, 30 uM TC-6683", "setting": "Lenti-X 293T cells; TC-6683 30 uM", "result": "−13.879", "unit": "%"},
      {"measurement": "percent quench of YFP fluorescence, 100 uM TC-6683", "setting": "Lenti-X 293T cells; TC-6683 100 uM", "result": "−21.521", "unit": "%"},
      {"measurement": "percent quench of YFP fluorescence, 10 uM ach", "setting": "Lenti-X 293T cells; acetylcholine 10 uM", "result": "−3.98", "unit": "%"},
      {"measurement": "percent quench of YFP fluorescence, 100 uM ach", "setting": "Lenti-X 293T cells; acetylcholine 100 uM", "result": "−10.34", "unit": "%"},
      {"measurement": "percent quench of YFP fluorescence, 300 uM ach", "setting": "Lenti-X 293T cells; acetylcholine 300 uM", "result": "−10.25", "unit": "%"},
      {"measurement": "percent quench of YFP fluorescence, 500 uM ach", "setting": "Lenti-X 293T cells; acetylcholine 500 uM", "result": "−11.46", "unit": "%"},
      {"measurement": "percent quench of YFP fluorescence, 1 mM ach", "setting": "Lenti-X 293T cells; acetylcholine 1 mM", "result": 1.77, "unit": "%"},
      {"measurement": "percent quench of YFP fluorescence, 3 mM ach", "setting": "Lenti-X 293T cells; acetylcholine 3 mM", "result": 36.81, "unit": "%"},
      {"measurement": "percent quench of YFP fluorescence, 10 mM ach", "setting": "Lenti-X 293T cells; acetylcholine 10 mM", "result": 74.02, "unit": "%"}
    ]}
  ]
}
